# Reference: publication PMC3359286 (2012)
# B1: Shr (protein)
# chain: QEPLVQSQLVTTVALTQDNRLLVEEIGPYASQSAGKEYYKHIEKIIVDNDVYEKSLEGERTFDINYQGIKINADLIKDGKHELTIVNKKDGDILITFIKKGDKVTFISAQKLGTTDHQDSLKKDVLSDKTVPQNQGTQKVVKSGKNTANLSLITKLSQEDGAILFPEIDRYSDNKQIKALTQQITKVTVNGTVYKDLISDSVKDTNGWVSNMTGLHLGTKAFKDGENTIVISSKGFEDVTITVTKKDGQIHFVSAKQKQHVTAEDRQSTKLDVTTLEKAIKEADAIIAKESNKDAVKDLAEKLQVIKDSYKEIKDSKLLADTHRLLKDTIESYQAGEVSINNLTEGTYTLNFKANKENSEESSMLQGAFDKRAKLVVKADGTMEISMLNTALGQFLIDFSIESKGTYPAAVRKQVGQKDINGSYIRSEFTMPIDDLDKLHKGAVLVSAMGGQESDLNHYDKYTKLDMTFSKTVTKGWSGYQVETDDKEKGVGTERLEKVLVKLGKDLDGDGKLSKTELEQIRGELRLDHYELTDISLLKHAKNITELHLDGNQITEIPKELFSQMKQLRFLNLRSNHLTYLDKDTFKSNAQLRELYLSSNFIHSLEGGLFQSLHHLEQLDLSKNRIGRLCDNPFEGLSRLTSLGFAENSLEEIPEKALEPLTSLNFIDLSQNNLALLPKTIEKLRALSTIVASRNHITRIDNISFKNLPKLSVLDLSTNEISNLPNGIFKQNNQLTKLDFFNNLLTQVEESVFPDVETLNLDVKFNQIKSVSPKVRALIGQHKLTPQKHIAKLEASLDGEKIKYHQAFSLLDLYYWEQKTNSAIDKELVSVEEYQQLLQEKGSDTVSLLNDMQVDWSIVIQLQKKASNGQYVTVDEKLLSNDPKDDLTGEFSLKDPGTYRIRKALITKKFATQKEHIYLTSNDILVAKGPHSHQKDLVENGLRALNQKQLRDGIYYLNASMLKTDLASESMSNKAINHRVTLVVKKGVSYLEVEFRGIKVGKMLGYLGELSYFVDGYQRDLAGKPVGRTKKAEVVSYFTDVTGLPLADRYGKNYPKVLRMKLIEQAKKDGLVPLQVFVPIMDAISKGSGLQTVFMRLDWASLTTEKAKVVKETNNPQENSHLTSTDQLKGPQNRQQEKTPTSPPSAATGIANLTDLLAKKATGQSTQETSKTDDTDKAEKLKQLVRDHQTSIEGKTAKDTKTKKSDKKHRSNQQSNGEESSSRYHLIAGLSSFMIVALGFIIGRKTLFK
# modifications: holoShr (heme-bound), ferric hemoglobin (metHb)
# Molecular target: methemoglobin (Homo sapiens, UniProt P69905)
# Experiment: ELISA
# Chain of methemoglobin (P69905 2-142, chain 1 of 2): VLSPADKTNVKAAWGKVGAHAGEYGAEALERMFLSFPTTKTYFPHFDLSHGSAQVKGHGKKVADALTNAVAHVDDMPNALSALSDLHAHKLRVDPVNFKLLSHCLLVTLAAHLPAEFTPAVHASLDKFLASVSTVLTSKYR
# Chain of methemoglobin (chain, as listed by the source, chain 2 of 2): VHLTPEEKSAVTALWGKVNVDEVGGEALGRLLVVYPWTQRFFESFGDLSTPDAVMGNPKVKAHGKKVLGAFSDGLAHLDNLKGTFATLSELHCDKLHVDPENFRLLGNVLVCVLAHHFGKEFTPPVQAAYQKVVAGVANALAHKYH
binder,measurement,value
B1,Kd,50 nM
